Results from the supplement of paper PMC7877785.
± gives the uncertainty stated by the source.

Experiment: self-splicing fitness, log relative to wild type (ln ratio); higher = more splicing; Tetrahymena group I intron in knt gene, E. coli kanamycin selection, DiMSum; sequences stand for … in CUCUCU…GGAGGGAAAAGUUAUCAGGCAUGCACCUGGUAGCUAGUCUUUAAACCAAUAGAUUGCAUCGGUUUAAAAGGCAAGACCGUCAAAUUGCGGGAAAGGGGUCAACAGCCGUUCAGUACCAAGUCUCAGGGGAAACUUUGAGAUGGCCUUGCAAAGGGUAUGGUAAUAAGCUGACGGACAUGGUCCUAACCACGCAGCCAAGUCCUAAGUCAACAGAUCUUCUGUUGAUAUGGAUGCAGUUCACAGACUAAAUGUCGGUCGGGGAAGAUGUAUUCUUCUCAUAAGAUAUAGUCGGACCUCUCCUUAAUGGGAGCUAGCGGAUGAAGUGAUGCAACACUGGAGCCGCUGGGAACUAAUUUGUAUGCGAAAGUAUAUUGAUUAGUUUUGGAGUACUCGUGGUCG
In short: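 Six replicate transformations of E. coli BL21(DE3) with a pET-22b(+) library were grown overnight at 37°C or 30°C. The library randomised all eight P1ex-region intron nucleotides, the intron lying in the knt kanamycin-resistance gene, and plates were LB agar with or without 25 μg/mL kanamycin plus 100 μg/mL carbenicillin, 50 μM IPTG and 0.2% rhamnose. Pooled colonies were amplicon-sequenced on an Illumina HiSeq 2500, and fitness is the DiMSum error-weighted combination of wild-type-normalised replicate fold changes, kanamycin versus none.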

| Sequence | self-splicing fitness (ln) (30 °C) | self-splicing fitness (ln) (37 °C) |
| --- | --- | --- |
| CCACAGCAAUAUUACGGGCA | -3.53 ± 0.15 | -2.92 ± 0.15 |
| CCACAGCAAUAUUACGGGCG | -0.605 ± 0.065 | 0.193 ± 0.087 |
| CCACAGCAAUAUUACGGUUA | -3.14 ± 0.15 | -2.7 ± 0.16 |
| CCACAGCAAUAUUACGUAGU | -3.22 ± 0.14 | -2.94 ± 0.19 |
| CCACAGCAAUAUUACGUCAG | -0.817 ± 0.057 | -0.131 ± 0.071 |
| CCAGAGCAAUAUUACGAAAA | -2.94 ± 0.32 | -1.54 ± 0.35 |
| CCAGAGCAAUAUUACGACGA | -2.94 ± 0.25 | -2.34 ± 0.3 |
| CCAGAGCAAUAUUACGAGUC | -2 ± 0.19 | -1.69 ± 0.28 |
| CCAGAGCAAUAUUACGAUAU | -2.51 ± 0.23 | -3.19 ± 0.37 |
| CCAGAGCAAUAUUACGAUGG | -4.18 ± 0.34 | -2.04 ± 0.27 |
| CCAGAGCAAUAUUACGAUUC | -4.06 ± 0.22 | -2.67 ± 0.21 |
| CCAGAGCAAUAUUACGCAUA | -3.74 ± 0.23 | -2.48 ± 0.24 |
| CCAGAGCAAUAUUACGCCGC |  | -0.773 ± 0.45 |
| CCAGAGCAAUAUUACGCGCU | -2.97 ± 0.24 | -1.89 ± 0.34 |
| CCAGAGCAAUAUUACGCUUU | -3.36 ± 0.27 | -1.71 ± 0.17 |
| CCAGAGCAAUAUUACGGAAA | -3.62 ± 0.32 | -2.19 ± 0.27 |
| CCAGAGCAAUAUUACGGAGU | -3.32 ± 0.21 | -3.21 ± 0.28 |
| CCAGAGCAAUAUUACGGGUU | -3.1 ± 0.23 | -2.63 ± 0.26 |
| CCAGAGCAAUAUUACGUCUC | -3.23 ± 0.15 | -2.78 ± 0.23 |
| CCAGAGCAAUAUUACGUUCC | -4.16 ± 0.31 | -2.6 ± 0.44 |
| CCAGAGCAAUAUUACGUUUG | -2.32 ± 0.11 | -2.25 ± 0.17 |
| CCAUAGCAAUAUUACGAACA | -3.77 ± 0.22 | -2.41 ± 0.25 |
| CCAUAGCAAUAUUACGACAG | -1.16 ± 0.092 | -0.413 ± 0.1 |
| CCAUAGCAAUAUUACGAGUU | -3.76 ± 0.36 | -2.1 ± 0.31 |

| Sequence | self-splicing fitness (ln) (30 °C) | self-splicing fitness (ln) (37 °C) |
| --- | --- | --- |
| CCAUAGCAAUAUUACGAUUG | -1.17 ± 0.07 | -0.642 ± 0.083 |
| CCAUAGCAAUAUUACGCAAC | -2.54 ± 0.28 |  |
| CCAUAGCAAUAUUACGCAGG | -3.98 ± 0.28 | -3.18 ± 0.35 |
| CCAUAGCAAUAUUACGCCCA | -1.9 ± 0.34 | -1.86 ± 0.35 |
| CCAUAGCAAUAUUACGCCGG | -2.5 ± 0.21 | -3.15 ± 0.47 |
| CCAUAGCAAUAUUACGCGCA | -2.65 ± 0.27 | -2 ± 0.34 |
| CCAUAGCAAUAUUACGCGGA | -2.87 ± 0.16 | -2.26 ± 0.17 |
| CCAUAGCAAUAUUACGCUGA | -3.52 ± 0.41 | -1.99 ± 0.28 |
| CCAUAGCAAUAUUACGCUUA | -2.56 ± 0.26 | -3.5 ± 0.33 |
| CCAUAGCAAUAUUACGCUUG | -2.3 ± 0.093 | -1.35 ± 0.091 |
| CCAUAGCAAUAUUACGGUCA | -3 ± 0.16 | -1.44 ± 0.2 |
| CCAUAGCAAUAUUACGGUCC | -2.72 ± 0.26 | -1.99 ± 0.42 |
| CCAUAGCAAUAUUACGUCUA | -4.41 ± 0.34 | -2.47 ± 0.18 |
| CCAUAGCAAUAUUACGUGCU | -3.88 ± 0.17 | -2.1 ± 0.15 |
| CCAUAGCAAUAUUACGUUCU | -3.64 ± 0.25 | -3.4 ± 0.32 |
| CCCAAGCAAUAUUACGAAGC | -3.21 ± 0.2 | -2.7 ± 0.24 |
| CCCAAGCAAUAUUACGAAUA | -3.15 ± 0.27 | -2.68 ± 0.25 |
| CCCAAGCAAUAUUACGACGU | -2.11 ± 0.13 | -2.43 ± 0.2 |
| CCCAAGCAAUAUUACGACUU | -4.21 ± 0.2 | -2.9 ± 0.17 |
| CCCAAGCAAUAUUACGAUUU | -2.62 ± 0.13 | -2.21 ± 0.17 |
| CCCAAGCAAUAUUACGCAGC | -3.93 ± 0.29 | -3.49 ± 0.34 |
| CCCAAGCAAUAUUACGCCAC | -2.48 ± 0.25 | -1.49 ± 0.22 |
| CCCAAGCAAUAUUACGGACG | -2.8 ± 0.13 | -2.17 ± 0.11 |
| CCCAAGCAAUAUUACGGAGC | -3.64 ± 0.18 | -2.21 ± 0.17 |

| Sequence | self-splicing fitness (ln) (30 °C) | self-splicing fitness (ln) (37 °C) |
| --- | --- | --- |
| CCCAAGCAAUAUUACGGAUA | -2.84 ± 0.22 | -2.17 ± 0.21 |
| CCCAAGCAAUAUUACGGAUC | -4.28 ± 0.23 | -2.45 ± 0.15 |
| CCCAAGCAAUAUUACGGAUU | -2.56 ± 0.12 | -2.71 ± 0.16 |
| CCCAAGCAAUAUUACGGCGA | -3.88 ± 0.2 | -1.69 ± 0.17 |
| CCCAAGCAAUAUUACGGGGG | -3.6 ± 0.13 | -3 ± 0.19 |
| CCCAAGCAAUAUUACGGUUU | -3.72 ± 0.12 | -2.92 ± 0.11 |
| CCCAAGCAAUAUUACGUAUU | -3.8 ± 0.16 | -2.7 ± 0.17 |
| CCCAAGCAAUAUUACGUCGU | -4.05 ± 0.2 | -2.31 ± 0.15 |
| CCCAAGCAAUAUUACGUGAG | -2.48 ± 0.09 | -0.85 ± 0.08 |
| CCCAAGCAAUAUUACGUGGU | -3.27 ± 0.087 | -1.86 ± 0.084 |
| CCCAAGCAAUAUUACGUUGC | -3.18 ± 0.25 | -2.16 ± 0.21 |
| CCCCAGCAAUAUUACGACCG | -4.12 ± 0.26 | -1.76 ± 0.34 |
| CCCCAGCAAUAUUACGACGC | -3.17 ± 0.25 | -3.22 ± 0.35 |
| CCCCAGCAAUAUUACGACUU | -3.29 ± 0.13 | -3 ± 0.22 |
| CCCCAGCAAUAUUACGAGAC | -3.9 ± 0.18 | -2.37 ± 0.21 |
| CCCCAGCAAUAUUACGAGAG | -3.91 ± 0.23 | -2.05 ± 0.17 |
| CCCCAGCAAUAUUACGAGAU | -3.78 ± 0.17 | -2.3 ± 0.2 |
| CCCCAGCAAUAUUACGAGCG | -4.16 ± 0.24 | -2.62 ± 0.23 |
| CCCCAGCAAUAUUACGAUAU | -3.52 ± 0.2 | -1.58 ± 0.21 |
| CCCCAGCAAUAUUACGAUUA | -3.4 ± 0.2 | -2.87 ± 0.22 |
| CCCCAGCAAUAUUACGCACG | -2.64 ± 0.11 | -2.2 ± 0.17 |
| CCCCAGCAAUAUUACGCGCC | -3.19 ± 0.19 | -3.17 ± 0.47 |
| CCCCAGCAAUAUUACGCGCU | -3.31 ± 0.12 | -2.45 ± 0.21 |
| CCCCAGCAAUAUUACGCGGG | -4.19 ± 0.18 | -3.1 ± 0.23 |

| Sequence | self-splicing fitness (ln) (30 °C) | self-splicing fitness (ln) (37 °C) |
| --- | --- | --- |
| CCCCAGCAAUAUUACGCUAA | -3.55 ± 0.18 | -3.2 ± 0.21 |
| CCCCAGCAAUAUUACGCUGA | -3.97 ± 0.2 | -2.42 ± 0.17 |
| CCCCAGCAAUAUUACGGAAA | -4.13 ± 0.34 | -1.64 ± 0.16 |
| CCCCAGCAAUAUUACGGAGC | -3.08 ± 0.15 | -2.83 ± 0.23 |
| CCCCAGCAAUAUUACGGAUG | -1.96 ± 0.064 | -1.08 ± 0.067 |
| CCCCAGCAAUAUUACGGCGC | -3.41 ± 0.17 | -2.98 ± 0.24 |
| CCCCAGCAAUAUUACGGCUC | -3.43 ± 0.18 | -2.75 ± 0.33 |
| CCCCAGCAAUAUUACGGGAA | -2.29 ± 0.096 | -1.64 ± 0.088 |
| CCCCAGCAAUAUUACGGGAU | -3.28 ± 0.12 | -2.48 ± 0.14 |
| CCCCAGCAAUAUUACGUAGG | -3.78 ± 0.12 | -2.68 ± 0.15 |
| CCCCAGCAAUAUUACGUGAC | -2.7 ± 0.11 | -3.24 ± 0.21 |
| CCCCAGCAAUAUUACGUGAU | -3.64 ± 0.11 | -2.96 ± 0.18 |
| CCCCAGCAAUAUUACGUGGU | -2.64 ± 0.1 | -2.98 ± 0.2 |
| CCCGAGCAAUAUUACGACCC |  | -0.219 ± 0.47 |
| CCCGAGCAAUAUUACGAGAA | -3.69 ± 0.43 | -2.1 ± 0.34 |
| CCCGAGCAAUAUUACGAGCU | -3.75 ± 0.17 | -2.69 ± 0.21 |
| CCCGAGCAAUAUUACGAUCU | -3.09 ± 0.19 | -2.68 ± 0.23 |
| CCCGAGCAAUAUUACGCACA | -2.87 ± 0.27 | -1.68 ± 0.32 |
| CCCGAGCAAUAUUACGCCAU | -3.53 ± 0.35 | -2.44 ± 0.33 |
| CCCGAGCAAUAUUACGCCGU | -3.61 ± 0.32 | -2.69 ± 0.32 |
| CCCGAGCAAUAUUACGCGAA |  | -3.31 ± 0.21 |
| CCCGAGCAAUAUUACGCGAG | -5.08 ± 0.41 | -2.46 ± 0.18 |
| CCCGAGCAAUAUUACGCGGG | -3.54 ± 0.17 | -3.45 ± 0.3 |
| CCCGAGCAAUAUUACGGAGA | -3.28 ± 0.14 | -1.36 ± 0.11 |
